Measurements published in patent US20160367961A1, “METHOD AND COMPOSITION FOR PEPTIDE C[…] PROTEASE TREATMENT” (Roche Sequencing Solutions, Inc., priority 2015, published 2016).

Target: streptavidin, P22629
Assay: SPR, BIAcore X100, streptavidin on CM5 chip, peptide in solution

Sequence of streptavidin, P22629 (P22629 37-163 limits assumed): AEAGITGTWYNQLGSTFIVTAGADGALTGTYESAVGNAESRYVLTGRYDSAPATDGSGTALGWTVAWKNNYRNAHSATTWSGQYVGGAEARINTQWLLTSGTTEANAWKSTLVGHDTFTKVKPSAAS

Binder	Kd
QNDHPQNGGQ (modifications not checked)	10.8 µM
NQPWQ (modifications not checked) [head-to-tail cyclic NQpWQ peptide]	61.3 µM
LYDHPQNGGQ (modifications not checked)	9.4 µM

Continued, values first:

Kd	Binder
320 µM	H-QNDHPQNGGQ-OH
100 µM	H-LYDHPQNGGQ-OH
